Data: US20250115678A1 (AstraZeneca / MedImmune, published 2025)

Experiments:
[1] = biological target: T1, LRRC15 on LRRC15pos tumour cell lines (Saos-2 WT, RPMI-7951 WT) (UniProt Q8TF66 22-581, limits assumed); test: Flow cytometry on Saos-2 WT cells (LRRC15pos), detected with anti-human Fc Alexa Fluor 647 (MFI)
T1 construct: whole, on cells; also called leucine rich repeat containing 15
T1 sequence (looked up): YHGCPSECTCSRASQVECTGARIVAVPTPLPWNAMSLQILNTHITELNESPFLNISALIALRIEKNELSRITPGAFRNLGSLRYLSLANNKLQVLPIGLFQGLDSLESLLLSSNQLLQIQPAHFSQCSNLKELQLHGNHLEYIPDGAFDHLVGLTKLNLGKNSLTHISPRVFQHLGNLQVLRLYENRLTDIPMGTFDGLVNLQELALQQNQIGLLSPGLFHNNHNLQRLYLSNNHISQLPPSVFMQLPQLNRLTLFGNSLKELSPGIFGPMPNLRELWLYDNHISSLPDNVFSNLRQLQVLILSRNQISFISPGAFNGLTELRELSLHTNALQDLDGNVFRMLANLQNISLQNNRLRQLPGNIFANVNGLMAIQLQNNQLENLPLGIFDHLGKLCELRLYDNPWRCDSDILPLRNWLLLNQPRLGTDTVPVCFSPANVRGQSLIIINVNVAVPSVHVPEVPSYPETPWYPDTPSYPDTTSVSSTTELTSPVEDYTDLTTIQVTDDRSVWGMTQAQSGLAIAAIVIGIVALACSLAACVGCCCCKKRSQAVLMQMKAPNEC

[2] = biological target: T1, LRRC15 on LRRC15pos tumour cell lines …; test: Flow cytometry on RPMI-7951 WT cells (LRRC15pos), detected with anti-human Fc Alexa Fluor 647 (MFI)
[3] = biological target: T2, recombinant human CD8ab (human, UniProt P01732 22-182; P10966 22-170); test: SPR (Biacore), soluble antigen, mean ± SD of three experiments
T2 construct: Soluble form of the CD8 alpha/beta heterodimer; construct not described
T2 sequence (P01732 22-182, chain 1 of 2): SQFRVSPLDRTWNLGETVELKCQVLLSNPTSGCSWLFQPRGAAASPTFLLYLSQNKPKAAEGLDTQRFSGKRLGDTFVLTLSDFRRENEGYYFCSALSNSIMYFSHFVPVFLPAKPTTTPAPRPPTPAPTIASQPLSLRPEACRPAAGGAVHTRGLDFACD
T2 sequence (P10966 22-170, chain 2 of 2): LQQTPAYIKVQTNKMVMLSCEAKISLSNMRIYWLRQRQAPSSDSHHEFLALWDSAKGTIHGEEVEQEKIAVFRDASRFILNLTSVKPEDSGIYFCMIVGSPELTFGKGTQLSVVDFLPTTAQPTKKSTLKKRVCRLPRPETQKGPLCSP
Description: (§1) KD were calculated as the ratio of koff/kₒₙ from a non-linear fit of the data. Values are presented as mean±standard deviation (SD) of three experiments.

[4] = biological target: recombinant cynomolgus monkey GPC3 (cynomolgus monkey, UniProt A0A2K5VK50 24-558); test: as above
Description: as §1

[5] = biological target: T3, recombinant cynomolgus monkey CD8ab (cynomolgus monkey); test: as above
T3 construct: Soluble form of the CD8 alpha/beta heterodimer; construct not described
Description: as §1

[6] = biological target: T4, soluble recombinant human GPC3 protein (human, UniProt P51654 25-559, biotinylated in the biolayer interferometry assay); test: as above
T4 construct: also called GPC3 human
T4 sequence (P51654 25-559 limits assumed): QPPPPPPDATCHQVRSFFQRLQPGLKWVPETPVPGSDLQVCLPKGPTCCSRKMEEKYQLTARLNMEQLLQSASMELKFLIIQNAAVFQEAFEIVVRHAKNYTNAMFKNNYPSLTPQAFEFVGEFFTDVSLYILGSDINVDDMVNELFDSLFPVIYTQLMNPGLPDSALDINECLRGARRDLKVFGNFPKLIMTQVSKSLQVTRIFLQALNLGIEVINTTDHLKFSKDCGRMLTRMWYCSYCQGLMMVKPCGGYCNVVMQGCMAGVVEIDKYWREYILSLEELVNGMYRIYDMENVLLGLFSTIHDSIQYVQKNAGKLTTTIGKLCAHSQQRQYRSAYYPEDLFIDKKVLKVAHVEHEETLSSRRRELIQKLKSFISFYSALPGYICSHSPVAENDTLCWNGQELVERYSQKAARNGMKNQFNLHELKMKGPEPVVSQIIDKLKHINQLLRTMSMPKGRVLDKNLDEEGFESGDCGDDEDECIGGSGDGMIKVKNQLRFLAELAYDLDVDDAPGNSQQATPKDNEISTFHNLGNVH
Description: as §1

[7] = biological target: T5, GPC3 on human hepatoma cells (Hep3B, HepG2) (human, UniProt P51654 25-554); test: flow cytometry on Hep3B cells, goat anti-human-IgG-APC; Hep3B cells
T5 construct: whole, on cells; also called Glypican-3
T5 sequence (P51654 25-554 limits assumed): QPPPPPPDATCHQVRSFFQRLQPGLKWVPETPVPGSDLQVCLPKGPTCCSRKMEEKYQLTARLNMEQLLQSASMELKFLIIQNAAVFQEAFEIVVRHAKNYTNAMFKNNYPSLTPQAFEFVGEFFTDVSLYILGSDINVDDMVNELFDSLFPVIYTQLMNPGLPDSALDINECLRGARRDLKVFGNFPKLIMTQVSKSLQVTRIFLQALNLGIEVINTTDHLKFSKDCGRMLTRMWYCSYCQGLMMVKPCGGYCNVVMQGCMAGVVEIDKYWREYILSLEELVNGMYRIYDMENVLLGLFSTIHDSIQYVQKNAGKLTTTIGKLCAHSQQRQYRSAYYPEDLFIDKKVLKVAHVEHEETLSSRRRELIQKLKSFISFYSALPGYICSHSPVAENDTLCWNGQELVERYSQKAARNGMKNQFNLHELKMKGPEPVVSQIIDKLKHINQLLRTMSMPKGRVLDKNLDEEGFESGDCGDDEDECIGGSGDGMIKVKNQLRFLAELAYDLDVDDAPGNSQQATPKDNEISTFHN
Description: (§2) Cell bindings were measured by flow cytometry.
as §2

[8] = biological target: T5, GPC3 on human hepatoma cells (Hep3B, …); test: flow cytometry on HepG2 cells, goat anti-human-IgG-APC; HepG2 cells
Description: as §2, §2

Binder	EC50 (read off the curve) [1] [nM]	EC50 (read off the curve) [2] [nM]	Kd [3] [nM]	koff [3] [s⁻¹]	kon [3] [M⁻¹ s⁻¹]	Kd [4] [nM]	koff [4] [s⁻¹]	kon [4] [M⁻¹ s⁻¹]	Kd [5] [nM]	koff [5] [s⁻¹]	kon [5] [M⁻¹ s⁻¹]	Kd [6] [nM]	koff [6] [s⁻¹]	kon [6] [M⁻¹ s⁻¹]	EC50 [7] [nM]	EC50 [8] [nM]
LRC150016 (other, also called LRC150016 (LRRC15); LRC150016 engager) light: DIQMTQSPSSLSASVGDRVTITCRASQDISNYLNWYQQKPGGAVKFLIYYTSRLHSGVPSRFSGSGSGTDYTLTISSLQPEDFATYFCQQGEALPWTFGGGTKVEIKRTVAAPSVFIFPPSDEQLKSGTASVVCLLNNFYPREAKVQWKVDNALQSGNSQESVTEQDSKDSTYSLSSTLTLSKADYEKHKVYACEVTHQGLSSPVTKSFNRGEC heavy 1: EVQLVQSGAEVKKPGASVKVSCKASGYKFSSYWIEWVKQAPGQGLEWIGEILPGSDTTNYNEKFKDRATFTSDTSINTAYMELSRLRSDDTAVYYCARDRGNYRAWFGYWGQGTLVTVSSASTKGPSVFPLAPSSKSTSGGTAALGCLVKDYFPEPVTVSWNSGALTSGVHTFPAVLQSSGLYSLSSVVTVPSSSLGTQTYICNVNHKPSNTKVDKRVEPKSCDKTGGSEVQLVESGGGLVQPGGSLRLSCVASGDVHKINFLGWYRQAPGKEREKVAHISIGDQTDYADSAKGRFTISRDESKNMVYLQMNSLKPEDTAVYFCRAFSRIYPYDYWGQGTLVTVSSGGGGSTHTCPPCPAPPVAGPSVFLFPPKPKDTLMISRTPEVTCVVVDVKHEDPEVKFNWYVDGVEVHNAKTKPREEQYNSTYRVVSVLTVLHQDWLNGKEYKCKVSNKALPAPIEKTISKAKGQPREPQVCTLPPSREEMTKNQVSLSCAVKGFYPSDIAVEWESNGQPENNYKTTPPVLDSDGSFFLVSKLTVDKSRWQQGNVFSCSVMHEALHNRFTQKSLSLSPGK heavy 2: EVQLVQSGAEVKKPGASVKVSCKASGYKFSSYWIEWVKQAPGQGLEWIGEILPGSDTTNYNEKFKDRATFTSDTSINTAYMELSRLRSDDTAVYYCARDRGNYRAWFGYWGQGTLVTVSSASTKGPSVFPLAPSSKSTSGGTAALGCLVKDYFPEPVTVSWNSGALTSGVHTFPAVLQSSGLYSLSSVVTVPSSSLGTQTYICNVNHKPSNTKVDKRVEPKSCDKTGGSEVQLLESGGGLVQPGGSLRLSCAASGFTFDDYAIGWFRQAPGKEREGVSCIRVSDGSTYYADSVKGRFTISRDNSKNTLYLQMNSLRAEDTAVYYCAAGSLYTCVQSIVWPARPYYDMDYWGQGTLVTVSSGGGGSTHTCPPCPAPPVAGPSVFLFPPKPKDTLMISRTPEVTCVVVDVKHEDPEVKFNWYVDGVEVHNAKTKPREEQYNSTYRVVSVLTVLHQDWLNGKEYKCKVSNKALPAPIEKTISKAKGQPREPQVYTLPPCREEMTKNQVSLWCLVKGFYPSDIAVEWESNGQPENNYKTTPPVLDSDGSFFLYSKLTVDKSRWQQGNVFSCSVMHEALHNHYTQKSLSLSPGK	~2	~3	–	–	–	–	–	–	–	–	–	–	–	–	–	–
LM1653 (other, also called GPC3 TITAN; LM1653 (GPC3)) light: DVVMTQSPLSLPVTPGEPASISCRSSQSLVHSNRNTYLHWYLQKPGQSPQLLIYKVSNRFSGVPDRFSGSGSGTDFTLKISRVEAEDVGVYYCSQNTHVPPTFGQGTKLEIKRTVAAPSVFIFPPSDEQLKSGTASVVCLLNNFYPREAKVQWKVDNALQSGNSQESVTEQDSKDSTYSLSSTLTLSKADYEKHKVYACEVTHQGLSSPVTKSFNRGEC heavy 1: QVQLVQSGAEVKKPGASVKVSCKASGYTFTDYEMHWVRQAPGQGLEWMGALDPKTGDTAYSQKFKGRVTLTADKSTSTAYMELSSLTSEDTAVYYCTRFYSYTYWGQGTLVTVSSASTKGPSVFPLAPSSKSTSGGTAALGCLVKDYFPEPVTVSWNSGALTSGVHTFPAVLQSSGLYSLSSVVTVPSSSLGTQTYICNVNHKPSNTKVDKRVEPKSCDKTGGSEVQLVESGGGLVQPGGSLRLSCVASGDVHKINFLGWYRQAPGKEREKVAHISIGDQTDYADSAKGRFTISRDESKNMVYLQMNSLKPEDTAVYFCRAFSRIYPYDYWGQGTLVTVSSGGGGSTHTCPPCPAPPVAGPSVFLFPPKPKDTLMISRTPEVTCVVVDVKHEDPEVKFNWYVDGVEVHNAKTKPREEQYNSTYRVVSVLTVLHQDWLNGKEYKCKVSNKALPAPIEKTISKAKGQPREPQVCTLPPSREEMTKNQVSLSCAVKGFYPSDIAVEWESNGQPENNYKTTPPVLDSDGSFFLVSKLTVDKSRWQQGNVFSCSVMHEALHNHYTQKSLSLSPGK heavy 2: QVQLVQSGAEVKKPGASVKVSCKASGYTFTDYEMHWVRQAPGQGLEWMGALDPKTGDTAYSQKFKGRVTLTADKSTSTAYMELSSLTSEDTAVYYCTRFYSYTYWGQGTLVTVSSASTKGPSVFPLAPSSKSTSGGTAALGCLVKDYFPEPVTVSWNSGALTSGVHTFPAVLQSSGLYSLSSVVTVPSSSLGTQTYICNVNHKPSNTKVDKRVEPKSCDKTGGSEVQLLESGGGLVQPGGSLRLSCAASGFTFDDYAIGWFRQAPGKEREGVSCIRVSDGSTYYADSVKGRFTISRDNSKNTLYLQMNSLRAEDTAVYYCAAGSLYTCVQSIVWPARPYYDMDYWGQGTLVTVSSGGGGSTHTCPPCPAPPVAGPSVFLFPPKPKDTLMISRTPEVTCVVVDVKHEDPEVKFNWYVDGVEVHNAKTKPREEQYNSTYRVVSVLTVLHQDWLNGKEYKCKVSNKALPAPIEKTISKAKGQPREPQVYTLPPCREEMTKNQVSLWCLVKGFYPSDIAVEWESNGQPENNYKTTPPVLDSDGSFFLYSKLTVDKSRWQQGNVFSCSVMHEALHNHYTQKSLSLSPGK	–	–	82.7	0.028	340000	0.82	0.000267	326000	62.4	0.0329	527000	0.67	0.000226	341000	8	2
